What was measured:
Test in all cases: SPR
[1] = target: T1, Recombinant B7-H4 (UniProt Q7Z7D3 25-259, N-glycans, including high mannose glycans through which PFL binds)
T1 chain: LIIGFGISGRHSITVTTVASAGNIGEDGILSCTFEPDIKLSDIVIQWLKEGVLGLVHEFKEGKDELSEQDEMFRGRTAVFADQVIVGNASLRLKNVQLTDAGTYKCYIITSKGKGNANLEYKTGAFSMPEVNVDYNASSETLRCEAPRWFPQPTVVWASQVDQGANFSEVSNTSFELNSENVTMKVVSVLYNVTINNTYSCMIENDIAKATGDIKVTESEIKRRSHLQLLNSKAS

[2] = target: T2, Recombinant integrin αvβ3 (UniProt P06756 31-1048; P05106 27-718)
T2 chain 1: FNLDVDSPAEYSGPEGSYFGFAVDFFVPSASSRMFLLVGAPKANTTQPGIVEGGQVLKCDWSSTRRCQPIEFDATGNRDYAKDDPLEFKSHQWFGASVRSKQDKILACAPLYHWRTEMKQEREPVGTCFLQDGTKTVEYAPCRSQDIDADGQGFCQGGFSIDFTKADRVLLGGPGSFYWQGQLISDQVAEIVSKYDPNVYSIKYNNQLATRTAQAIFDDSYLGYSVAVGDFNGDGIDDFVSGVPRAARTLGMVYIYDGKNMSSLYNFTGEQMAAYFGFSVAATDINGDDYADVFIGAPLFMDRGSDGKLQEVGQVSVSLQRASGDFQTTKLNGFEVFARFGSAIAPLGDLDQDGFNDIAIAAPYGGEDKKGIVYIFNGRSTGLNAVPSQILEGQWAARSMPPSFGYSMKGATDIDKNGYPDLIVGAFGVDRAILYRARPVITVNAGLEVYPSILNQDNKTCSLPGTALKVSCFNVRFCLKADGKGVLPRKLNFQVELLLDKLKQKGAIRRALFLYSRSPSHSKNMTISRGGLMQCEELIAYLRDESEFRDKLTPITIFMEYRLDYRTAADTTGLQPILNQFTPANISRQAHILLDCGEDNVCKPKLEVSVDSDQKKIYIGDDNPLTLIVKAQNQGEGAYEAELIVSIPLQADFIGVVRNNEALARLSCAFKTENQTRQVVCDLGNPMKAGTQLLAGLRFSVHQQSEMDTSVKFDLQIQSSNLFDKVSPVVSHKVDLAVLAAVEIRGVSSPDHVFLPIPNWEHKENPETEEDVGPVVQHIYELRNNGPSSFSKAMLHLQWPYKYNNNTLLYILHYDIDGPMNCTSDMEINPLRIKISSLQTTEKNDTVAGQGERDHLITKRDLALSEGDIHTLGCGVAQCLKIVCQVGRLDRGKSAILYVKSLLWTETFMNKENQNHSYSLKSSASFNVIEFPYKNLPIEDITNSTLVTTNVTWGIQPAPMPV
T2 chain 2: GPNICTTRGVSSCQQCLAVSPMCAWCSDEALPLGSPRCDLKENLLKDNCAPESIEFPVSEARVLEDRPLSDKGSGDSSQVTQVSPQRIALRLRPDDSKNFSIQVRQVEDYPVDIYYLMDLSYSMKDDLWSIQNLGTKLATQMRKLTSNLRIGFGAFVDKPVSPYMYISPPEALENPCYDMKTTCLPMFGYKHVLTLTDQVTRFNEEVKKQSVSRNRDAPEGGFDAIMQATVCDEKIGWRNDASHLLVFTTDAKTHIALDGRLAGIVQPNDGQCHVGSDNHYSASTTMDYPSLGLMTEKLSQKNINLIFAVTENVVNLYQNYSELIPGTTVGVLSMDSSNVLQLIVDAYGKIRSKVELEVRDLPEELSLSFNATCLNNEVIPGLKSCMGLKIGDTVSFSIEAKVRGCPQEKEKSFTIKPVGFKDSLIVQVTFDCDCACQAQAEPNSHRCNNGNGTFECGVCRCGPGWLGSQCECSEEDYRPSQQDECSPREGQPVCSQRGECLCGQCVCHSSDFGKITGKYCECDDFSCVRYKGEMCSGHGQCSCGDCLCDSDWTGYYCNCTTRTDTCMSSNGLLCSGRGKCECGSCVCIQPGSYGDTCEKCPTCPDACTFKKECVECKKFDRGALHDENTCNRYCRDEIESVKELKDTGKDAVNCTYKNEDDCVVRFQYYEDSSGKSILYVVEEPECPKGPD

[3] = target: T1, Recombinant B7-H4
[4] = target: T2, Recombinant integrin αvβ3

B1: Pseudomonas fluorescens lectin (PFL) (natural protein)
chain: MSKYAVANQWGGSSAPWHPGGTWVLGARDNQNVVAIEIKSGDGGKSFTGTMTYAGEGPIGFKAQRTGQNQYNVENQWGGNDAPWHPGGKWVIGGRDNQNVIALSVTSSDGGKNLSGTNTYANEGPIGFRGQIE
[1]
  koff: 0.00043 s⁻¹
[2]
  koff: 8.69e-06 s⁻¹
[3]
  Kd: 5.35 nM
[4]
  Kd: 1.65 nM
